Data from US20190256585A1 (IMMUNEMED, published 2019).

The binders below were run against T1, VSF receptors on L929 cells infected with EMC-D virus (mouse, UniProt P20152 2-466) (assay: depletion of ligand from the culture supernatant of EMC-D-infected L929 cells (added minus recovered after 1 hour)).
T1 construct: also called receptors of hzVSF; VR
Method: L929 cells were seeded at the amount of 6×10⁵ cells and infected with 2 MOI of EMC-D virus for 0, 2, 6, and 10 hours, respectively. […] The difference between the amount of each ligand added and the amount of the collected ligand after reaction is the amount of the ligand bound to the receptors, and based on the result, the affinity constant (Ka) and the dissociation constant (Kd) were calculated (Table 11).

T1 sequence (P20152 2-466 limits assumed, form in doubt): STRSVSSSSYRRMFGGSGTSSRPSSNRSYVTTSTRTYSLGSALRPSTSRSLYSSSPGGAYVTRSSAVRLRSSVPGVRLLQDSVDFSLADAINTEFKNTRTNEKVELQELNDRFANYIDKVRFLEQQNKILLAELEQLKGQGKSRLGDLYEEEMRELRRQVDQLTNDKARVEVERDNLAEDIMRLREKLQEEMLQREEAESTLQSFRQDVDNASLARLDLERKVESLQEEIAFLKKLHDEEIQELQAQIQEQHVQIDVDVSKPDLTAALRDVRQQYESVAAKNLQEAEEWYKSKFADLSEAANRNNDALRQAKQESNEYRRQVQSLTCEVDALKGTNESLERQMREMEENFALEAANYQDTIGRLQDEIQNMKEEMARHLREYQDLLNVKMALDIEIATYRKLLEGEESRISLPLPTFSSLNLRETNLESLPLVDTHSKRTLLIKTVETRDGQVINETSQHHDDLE

Binder | Ka [M⁻¹] | Kd [nM]
humanized virus suppressing factor wild-type (hzVSF_wt) (antibody, V domains shown, also called hzVSF wild-type) VH: EVQLVQSGAEVKKPGASVKVSCKASGYTFTGYNMNWVRQAPGKGLEWMGNIDPYYGSTTYAQKFQGRVTMTVDKSISTAYMELSRLRSDDTAVYYCARETGTRAMDYWGQGTLVTVSS VL: DIQMTQSPSSLSASVGDRVTITCRASENIYSNLAWYQQKPGKAPKLLIYVATNLADGVPSRFSGSGSGTDFTLTISSLQPEDFATYYCQHFYGSPRTFGGGTKVEIK | 8.2e+09 | 0.12
hzVSF_var13 (antibody, V domains shown, constant regions not tied to this variant; also called hzVSF v13) VH: EVQLVQSGAEVKKPGASVKVSCKASGYTFTGYNMNWVRQAPGKGLEWMGNIDPYYGSDTYAQKFQGRVTMTVDKSISTAYMELSRLRSDDTAVYYCARETGTRAMDYWGQGTLVTVSS VL: DIQMTQSPSSLSASVGDRVTITCRASENIYSNLAWYQQKPGKAPKLLIYVADNLADGVPSRFSGSGSGTDFTLTISSLQPEDFATYYCQHFYGSPRTFGGGTKVEIK | 1.7e+10 | 0.059
mouse virus suppressing factor (mVSF) (antibody, V domains shown, also called mouse VSF) VH: EIQLQQSGAELVKPGASVKISCKASGYSFTGYNMNWVKQSHGKSLEWIGNIDPYYGSTTYNQKFKGKATLTVDKSSSTAYMQLNSLTSEDSAVYYCARETGTRAMDYWGQGTSVTVSS VL: DIQMTQSPASLSASVGETVTMTCRASENIYSNLAWYQQKQGKSPQLLVYVATNLADGVPSRFSGSGSGTQFSLKINSLQPEDFGSYYCQHFYGSPRTFGGGTKLEIKR | 2.1e+10 | 0.047

What follows are binders tested against isolated peptide of SEQ ID NO: 1 (vimentin amino acid positions 142 to 294) (assay: method not described (refers to FIGS. 54 to 58)).

Binder | binding result
humanized virus suppressing factor wild-type (hzVSF_wt) (antibody, V domains shown, also called hzVSF wild-type) VH: EVQLVQSGAEVKKPGASVKVSCKASGYTFTGYNMNWVRQAPGKGLEWMGNIDPYYGSTTYAQKFQGRVTMTVDKSISTAYMELSRLRSDDTAVYYCARETGTRAMDYWGQGTLVTVSS VL: DIQMTQSPSSLSASVGDRVTITCRASENIYSNLAWYQQKPGKAPKLLIYVATNLADGVPSRFSGSGSGTDFTLTISSLQPEDFATYYCQHFYGSPRTFGGGTKVEIK | binds
hzVSF_var10 (antibody, V domains shown, Humanized IgG variant of hzVSF; constant regions not tied to this variant) VH: EVQLVQSGAEVKKPGASVKVSCKASGYTFTGYNMNWVRQAPGKGLEWMGNIDPYYGSDTYAQKFQGRVTMTVDTSASTAYMELSRLRSDDTAVYYCARETGNRAMDYWGQGTLVTVSS VL: DIQMTQSPSSLSASVGDRVTITCRASENIYSNLAWYQQKPGKAPKLLIYVADNRGDGVPSRFSGSGSGTDFTLTISSLQPEDFATYYCQHFYGSPRTFGGGTKVEIK | binds
hzVSF_var5 (antibody, V domains shown, Humanized IgG variant of hzVSF; constant regions not tied to this variant) VH: EVQLVQSGAEVKKPGASVKVSCKASGYTFTGYNMNWVRQAPGKGLEWMGNIDPYYGSDTYAQKFQGRVTMTVDKSISTAYMELSRLRSDDTAVYYCARETGTRAMDYWGQGTLVTVSS VL: DIQMTQSPSSLSASVGDRVTITCRASENIYSNLAWYQQKPGKAPKLLIYVATNLADGVPSRFSGSGSGTDFTLTISSLQPEDFATYYCQHFYGSPRTFGGGTKVEIK | binds
hzVSF_var1 (antibody, V domains shown, Humanized IgG variant of hzVSF; constant regions not tied to this variant; also called hzVSF_1) VH: EVQLVQSGAEVKKPGASVKVSCKASGYTFTGYNMNWVRQAPGKGLEWMGNIDPYYGSTTYAQKFQGRVTMTVDKSISTAYMELSRLRSDDTAVYYCARETGTRAMDYWGQGTLVTVSS VL: DIQMTQSPSSLSASVGDRVTITCRASENIYSNLAWYQQKPGKAPKLLIYVADNLADGVPSRFSGSGSGTDFTLTISSLQPEDFATYYCQHFYGSPRTFGGGTKVEIK | binds
hzVSF_var7 (antibody, V domains shown, Humanized IgG variant of hzVSF; constant regions not tied to this variant) VH: EVQLVQSGAEVKKPGASVKVSCKASGYTFTGYNMNWVRQAPGKGLEWMGNIDPYYGSDTYAQKFQGRVTMTVDTSASTAYMELSRLRSDDTAVYYCARETGTRAMDYWGQGTLVTVSS VL: DIQMTQSPSSLSASVGDRVTITCRASENIYSNLAWYQQKPGKAPKLLIYVATNLADGVPSRFSGSGSGTDFTLTISSLQPEDFATYYCQHFYGSPRTFGGGTKVEIK | binds
hzVSF_var12 (antibody, V domains shown, Humanized IgG variant of hzVSF; constant regions not tied to this variant) VH: EVQLVQSGAEVKKPGASVKVSCKASGYTFTGYNMNWVRQAPGKGLEWMGNIDPYYGSDTYAQKFQGRVTMTVDTSASTAYMELSRLRSDDTAVYYCARETGNRAMDYWGQGTLVTVSS VL: DIQMTQSPSSLSASVGDRVTITCRASENIYSNLAWYQQKPGKAPKLLIYVADNRGDGVPSRFSGSGSGTDFTLTISSLQPEDFATYYCQHFYGTPRTFGGGTKVEIK | binds
hzVSF_var13 (antibody, V domains shown, constant regions not tied to this variant; also called hzVSF v13) VH: EVQLVQSGAEVKKPGASVKVSCKASGYTFTGYNMNWVRQAPGKGLEWMGNIDPYYGSDTYAQKFQGRVTMTVDKSISTAYMELSRLRSDDTAVYYCARETGTRAMDYWGQGTLVTVSS VL: DIQMTQSPSSLSASVGDRVTITCRASENIYSNLAWYQQKPGKAPKLLIYVADNLADGVPSRFSGSGSGTDFTLTISSLQPEDFATYYCQHFYGSPRTFGGGTKVEIK | binds
hzVSF_var11 (antibody, V domains shown, Humanized IgG variant of hzVSF; constant regions not tied to this variant) VH: EVQLVQSGAEVKKPGASVKVSCKASGYTFTGYNMNWVRQAPGKGLEWMGNIDPYYGSDTYAQKFQGRVTMTVDTSASTAYMELSRLRSDDTAVYYCARETGTRAMDYWGQGTLVTVSS VL: DIQMTQSPSSLSASVGDRVTITCRASENIYSNLAWYQQKPGKAPKLLIYVADNRGDGVPSRFSGSGSGTDFTLTISSLQPEDFATYYCQHFYGTPRTFGGGTKVEIK | binds
hzVSF_var3 (antibody, V domains shown, Humanized IgG variant of hzVSF; constant regions not tied to this variant) VH: EVQLVQSGAEVKKPGASVKVSCKASGYTFTGYNMNWVRQAPGKGLEWMGNIDPYYGSTTYAQKFQGRVTMTVDKSISTAYMELSRLRSDDTAVYYCARETGTRAMDYWGQGTLVTVSS VL: DIQMTQSPSSLSASVGDRVTITCRASENIYSNLAWYQQKPGKAPKLLIYVADNRGDGVPSRFSGSGSGTDFTLTISSLQPEDFATYYCQHFYGSPRTFGGGTKVEIK | binds
hzVSF_var2 (antibody, V domains shown, Humanized IgG variant of hzVSF; constant regions not tied to this variant) VH: EVQLVQSGAEVKKPGASVKVSCKASGYTFTGYNMNWVRQAPGKGLEWMGNIDPYYGSTTYAQKFQGRVTMTVDKSISTAYMELSRLRSDDTAVYYCARETGTRAMDYWGQGTLVTVSS VL: DIQMTQSPSSLSASVGDRVTITCRASENIYSNLAWYQQKPGKAPKLLIYVADNLGDGVPSRFSGSGSGTDFTLTISSLQPEDFATYYCQHFYGSPRTFGGGTKVEIK | binds
hzVSF_var9 (antibody, V domains shown, Humanized IgG variant of hzVSF; constant regions not tied to this variant) VH: EVQLVQSGAEVKKPGASVKVSCKASGYTFTGYNMNWVRQAPGKGLEWMGNIDPYYGSDTYAQKFQGRVTMTVDTSASTAYMELSRLRSDDTAVYYCARETGTRAMDYWGQGTLVTVSS VL: DIQMTQSPSSLSASVGDRVTITCRASENIYSNLAWYQQKPGKAPKLLIYVADNRGDGVPSRFSGSGSGTDFTLTISSLQPEDFATYYCQHFYGSPRTFGGGTKVEIK | binds
hzVSF_var4 (antibody, V domains shown, Humanized IgG variant of hzVSF; constant regions not tied to this variant) VH: EVQLVQSGAEVKKPGASVKVSCKASGYTFTGYNMNWVRQAPGKGLEWMGNIDPYYGSTTYAQKFQGRVTMTVDKSISTAYMELSRLRSDDTAVYYCARETGTRAMDYWGQGTLVTVSS VL: DIQMTQSPSSLSASVGDRVTITCRASENIYSNLAWYQQKPGKAPKLLIYVADNRGDGVPSRFSGSGSGTDFTLTISSLQPEDFATYYCQHFYGTPRTFGGGTKVEIK | binds
hzVSF_var6 (antibody, V domains shown, Humanized IgG variant of hzVSF; constant regions not tied to this variant) VH: EVQLVQSGAEVKKPGASVKVSCKASGYTFTGYNMNWVRQAPGKGLEWMGNIDPYYGSTTYAQKFQGRVTMTVDTSASTAYMELSRLRSDDTAVYYCARETGTRAMDYWGQGTLVTVSS VL: DIQMTQSPSSLSASVGDRVTITCRASENIYSNLAWYQQKPGKAPKLLIYVATNLADGVPSRFSGSGSGTDFTLTISSLQPEDFATYYCQHFYGSPRTFGGGTKVEIK | binds
hzVSF_var8 (antibody, V domains shown, Humanized IgG variant of hzVSF; constant regions not tied to this variant) VH: EVQLVQSGAEVKKPGASVKVSCKASGYTFTGYNMNWVRQAPGKGLEWMGNIDPYYGSDTYAQKFQGRVTMTVDTSASTAYMELSRLRSDDTAVYYCARETGNRAMDYWGQGTLVTVSS VL: DIQMTQSPSSLSASVGDRVTITCRASENIYSNLAWYQQKPGKAPKLLIYVATNLADGVPSRFSGSGSGTDFTLTISSLQPEDFATYYCQHFYGSPRTFGGGTKVEIK | binds
